No end group written: not given here.
How the values were obtained:
[1] = target: T1, CD123 on CD123 positive AML cells (Oci-AML3, Molm-13, MV4-11, primary AML cells) (human, UniProt P26951 19-378); assay: cell-based or functional assay
human CD123-Fc = target: T2, human CD123-Fc (human, UniProt P26951 19-305, limits assumed); assay: SPR, Biacore X100, human CD123-Fc on CM5 chip, 1:1 model; KD CD123 (first number of the cell)
T2 construct: Coupled to a CM5 sensor chip; also called soluble recombinant CD123; not shown: Fc part
T2 sequence (looked up): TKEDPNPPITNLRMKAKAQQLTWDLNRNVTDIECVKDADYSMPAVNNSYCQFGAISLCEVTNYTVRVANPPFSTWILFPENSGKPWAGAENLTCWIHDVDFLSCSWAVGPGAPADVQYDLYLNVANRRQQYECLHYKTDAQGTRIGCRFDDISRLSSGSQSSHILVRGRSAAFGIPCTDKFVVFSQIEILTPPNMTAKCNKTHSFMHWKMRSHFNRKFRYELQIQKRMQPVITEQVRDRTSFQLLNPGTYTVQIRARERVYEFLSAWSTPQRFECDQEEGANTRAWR
Procedure: Binding of different variants of the targeting module according to the invention was analyzed by SPR measurements using human CD123-Fc coupled to a CM5 sensor chip on a Biacore X100 device (FIG. 2). Targeting modules were purified monomer except for the targeting module according to SEQ ID No. 8. […] For data fitting and KD calculation a 1:1 binding model was applied.

[2] = target: T1, CD123 on CD123 positive AML cells …; assay: flow cytometry on Oci-AML3 cells, anti-His-PE detection. Half-maximal binding from a four-parameter fit of gMFI. Unit taken from the concentration axis [M]
Procedure: Cellular binding of CD123-binding targeting modules (TM) was tested on CD123 positive target cell lines Oci-AML3 and Molm-13: A) SEQ ID No. 5 to Oci-AML3, B) SEQ ID No. 9 to Oci-AML3, C) SEQ ID No. 4 to Molm-13 and D) SEQ ID No. 6 to Molm-13. The affinity of TMs was analyzed by flow cytometry. The TMs were titrated on an AML cell lines and then detected by a mouse anti-His-tag antibody conjugated to phycoerythrin.
Different concentrations of R-TM123 were incubated with cells, washed and quantified. A dose-response curve was obtained when the geometric mean fluorescence (MFI) was plotted against the TM concentration.

[3] = target: T1, CD123 on CD123 positive AML cells …; assay: cellular binding assay per table caption, Oci-AML3 cells
[4] = target: T3, La epitope 5B9 (SEQ ID No. 28) fused to human Fc domain (human, also: fused to human Fc domain, order, isotype, linker not given here); assay: SPR, Biacore X100, La epitope 5B9-human Fc on CM5 chip; KD 5B9 (second number of the cell)
T3 construct: Coupled to a CM5 sensor chip; not shown: human Fc domain
T3 chain: KPLPEVTDEY
Procedure: Furthermore, binding of different variants of the targeting module according to the invention was analyzed using the La epitope 5B9 (SEQ ID No. 28) fused to human Fc domain which was coupled to a CM5 sensor chip on a Biacore X100 device (FIG. 3). The targeting modules were purified monomers. The targeting modules were concentrated between 2.47 to 200 nM and measured in technical duplicates. For data fitting and KD calculation a two-state-reaction binding model was applied.

[5] = target: T1, CD123 on CD123 positive AML cells …; assay: cell-based or functional assay; remark: listed apart in the source
[6] = target: T1, CD123 on CD123 positive AML cells …; assay: cellular binding assay per table caption, Molm-13 cells

Kd (human CD123-Fc): 23 pM
Kd [2]: 2920 pM
EC50 [3]: 3 pM
Kd [4]: 3400 pM
EC50 [6]: 1.2 pM
B1: targeting module according to SEQ ID No. 5 (bispecific antibody)
chain: EVQLQQSGPELVKPGASVKMSCKASGYTFTDYYMKWVKQSHGKSLEWIGDIIPSNGATFYNQKFKGKATLTVDRSSSTAYMHLNSLTSEDSAVYYCTRSHLLRASWFAYWGQGTLVTVSAASGGGGSGGGGSGGGGSDFVMTQSPSSLTVTAGEKVTMSCKSSQSLLNSGNQKNYLTWYLQKPGQPPKLLIYWASTRESGVPDRFTGSGSGTDFTLTISSVQAEDLAVYYCQNDYSYPYTFGGGTKLEIKAAARGDIVMTQSPDSLAVSLGERATINCKSSQSLLNSRTPKNYLAWYQQKPGQPPKLLIYWASTRKSGVPDRFSGSGSGTDFTLTISSLQAEDVAVYYCKQSYNLLTFGGGTKVEIKGGGGSGGGGSGASAAGGGGSGGGGSQVQLVQSGAEVKKPGASVKVSCKASGYTFTHYYIYWVRQAPGQGLEWMGGVNPSNGGTHFNEKFKSRVTMTRDTSISTAYMELSRLRSDDTAVYYCARSEYDYGLGFAYWGQGTLVTVSSGGGGSHHHHHHHH
notes: also called R-TM123; muCD123 + 5B9-VL-VH
EC50 of R-TM123 for lysis of primary AML cells AML 1 by RevCAR-T, Donor #2 [1]: 3.4 pM
EC50 of R-TM123 for lysis of primary AML cells AML 1 by RevCAR-T, Donor #3 [1]: 2.9 pM
EC50 of R-TM123 for lysis of primary AML cells AML 1 by RevCAR-T, Donor #4 [1]: 1.8 pM
EC50 of R-TM123 for lysis of primary AML cells AML 1 by RevCAR-T, Mean [1]: 2.7 pM
EC50 of R-TM123 for lysis of primary AML cells AML 3 by RevCAR-T, Donor #2 [1]: 3 pM
EC50 of R-TM123 for lysis of primary AML cells AML 3 by RevCAR-T, Donor #3 [1]: 3.8 pM
EC50 of R-TM123 for lysis of primary AML cells AML 3 by RevCAR-T, Donor #4 [1]: 2.2 pM
EC50 of R-TM123 for lysis of primary AML cells AML 3 by RevCAR-T, Mean [1]: 3 pM
EC50 of R-TM123 for lysis of primary AML cells AML 4 by RevCAR-T, Donor #2 [1]: 1.7 pM
EC50 of R-TM123 for lysis of primary AML cells AML 4 by RevCAR-T, Donor #3 [1]: 3.1 pM
EC50 of R-TM123 for lysis of primary AML cells AML 4 by RevCAR-T, Donor #4 [1]: 1.8 pM
EC50 of R-TM123 for lysis of primary AML cells AML 4 by RevCAR-T, Mean [1]: 2.2 pM
EC50 of R-TM123 for lysis of primary AML cells AML 5 by RevCAR-T, Donor #2 [1]: 2.2 pM
EC50 of R-TM123 for lysis of primary AML cells AML 5 by RevCAR-T, Donor #3 [1]: 3.6 pM
EC50 of R-TM123 for lysis of primary AML cells AML 5 by RevCAR-T, Donor #4 [1]: 2.1 pM
EC50 of R-TM123 for lysis of primary AML cells AML 5 by RevCAR-T, Mean [1]: 2.6 pM
EC50 of R-TM123 for RevCAR-T mediated lysis of MOLM-13, Donor #1 [5]: 1.3 pM
EC50 of R-TM123 for RevCAR-T mediated lysis of MOLM-13, Donor #2 [5]: 2.2 pM
EC50 of R-TM123 for RevCAR-T mediated lysis of MOLM-13, Donor #3 [5]: 2.6 pM
EC50 of R-TM123 for RevCAR-T mediated lysis of MOLM-13, Donor #4 [5]: 1 pM
EC50 of R-TM123 for RevCAR-T mediated lysis of MOLM-13, Mean [5]: 1.8 pM
EC50 of R-TM123 for RevCAR-T mediated lysis of MV4-11, Donor #1 [5]: 2.8 pM
EC50 of R-TM123 for RevCAR-T mediated lysis of MV4-11, Donor #2 [5]: 4.2 pM
EC50 of R-TM123 for RevCAR-T mediated lysis of MV4-11, Donor #3 [5]: 3.8 pM
EC50 of R-TM123 for RevCAR-T mediated lysis of MV4-11, Donor #4 [5]: 3.3 pM
EC50 of R-TM123 for RevCAR-T mediated lysis of MV4-11, Mean [5]: 3.5 pM
EC50 of R-TM123 for RevCAR-T mediated lysis of OCI-AML3, Donor #1 [5]: 8.6 pM
EC50 of R-TM123 for RevCAR-T mediated lysis of OCI-AML3, Donor #2 [5]: 6.7 pM
EC50 of R-TM123 for RevCAR-T mediated lysis of OCI-AML3, Donor #3 [5]: 4.9 pM
EC50 of R-TM123 for RevCAR-T mediated lysis of OCI-AML3, Donor #4 [5]: 2.7 pM
EC50 of R-TM123 for RevCAR-T mediated lysis of OCI-AML3, Mean [5]: 5.7 pM

From US20250269025A1 (AVENCELL THERAPEUTICS, published 2025)
